Reference: patent publication US20250073311A1, “DOSAGE REGIME” (ZEALAND PHARMA A/S, priority 2021, published 2025)
Numbered stars: 1 amine (or outer) side, 2 acyl side, 3 side chain; on linkers, the order of the positions; unused ones are H or OH. Square brackets hold non-standard residues; d marks the D form. Side chains are listed from the residue outwards. Ends that are not written are not given here. Peptide text beside a SMILES is read from it. * marks the point of attachment. C20 diacid = O=C(O)CCCCCCCCCCCCCCCCCCC(=O)*; C18 diacid = O=C(O)CCCCCCCCCCCCCCCCC(=O)*; γGlu = O=C(O)[C@H](CCC(=O)[*:2])N[*:1]; AEEA = NCCOCCOCC(=O)O; Aib = CC(C)(N)C(=O)O

T1: human GLP-2 receptor (Homo sapiens, UniProt O95838, D470N)
T1 sequence (O95838 1-553 D470N): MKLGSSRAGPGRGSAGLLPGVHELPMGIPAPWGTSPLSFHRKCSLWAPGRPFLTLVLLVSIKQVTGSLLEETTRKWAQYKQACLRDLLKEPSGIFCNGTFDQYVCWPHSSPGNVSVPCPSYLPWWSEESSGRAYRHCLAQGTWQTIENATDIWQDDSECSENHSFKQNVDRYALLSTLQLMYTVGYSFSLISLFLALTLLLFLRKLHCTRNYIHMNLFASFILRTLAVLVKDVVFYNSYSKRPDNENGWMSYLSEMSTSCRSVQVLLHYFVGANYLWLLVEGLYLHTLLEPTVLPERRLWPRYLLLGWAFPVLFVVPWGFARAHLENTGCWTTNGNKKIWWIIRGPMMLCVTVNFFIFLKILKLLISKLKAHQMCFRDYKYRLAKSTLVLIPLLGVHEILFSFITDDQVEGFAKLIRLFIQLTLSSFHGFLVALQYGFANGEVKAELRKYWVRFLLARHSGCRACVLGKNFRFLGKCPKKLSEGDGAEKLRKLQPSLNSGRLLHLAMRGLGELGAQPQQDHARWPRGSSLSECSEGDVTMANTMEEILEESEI

T2: human GLP-2 receptor (hGLP2-R) (human, UniProt O95838)
T2 sequence: T1 sequence (O95838 1-553 D470N)


Key:
[1] = target: T3, human GLP-1 receptor (Homo sapiens, UniProt P43220); experiment: GLP-1 receptor potency assay (cAMP AlphaScreen); assay type: cell-based; details: HEK293 cells expressing human GLP-1R, cAMP response
T3 construct: expressed in transfected cells
T3 sequence (P43220 24-463): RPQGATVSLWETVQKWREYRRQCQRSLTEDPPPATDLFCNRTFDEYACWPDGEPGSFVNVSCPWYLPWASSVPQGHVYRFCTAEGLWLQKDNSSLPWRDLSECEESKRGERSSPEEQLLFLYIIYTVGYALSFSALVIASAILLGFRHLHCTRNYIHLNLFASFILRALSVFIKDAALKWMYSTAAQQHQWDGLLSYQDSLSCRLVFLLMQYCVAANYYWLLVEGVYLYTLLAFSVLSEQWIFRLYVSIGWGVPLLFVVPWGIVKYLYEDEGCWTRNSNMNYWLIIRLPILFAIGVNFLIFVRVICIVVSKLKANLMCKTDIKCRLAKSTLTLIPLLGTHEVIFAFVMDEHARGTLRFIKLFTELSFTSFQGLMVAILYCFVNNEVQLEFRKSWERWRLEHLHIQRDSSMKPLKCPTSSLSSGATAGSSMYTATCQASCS
Excerpt: The cDNA encoding the human glucagon-like peptide 1 receptor (GLP-1R) (primary accession number P43220) was cloned from the cDNA BC112126(MGC:138331/IMAGE:8327594). The DNA encoding the GLP-1-R was amplified by PCR using primers encoding terminal restriction sites for subcloning. The 5′-end primers additionally encoded a near Kozak consensus sequence to ensure efficient translation. The fidelity of the DNA encoding the GLP-1-R was confirmed by DNA sequencing. The PCR products encoding the GLP-1-R were subcloned into a mammalian expression vector containing a neomycin (G418) resistance marker. The mammalian expression vectors encoding the GLP-1-R were transfected into HEK293 cells by a standard calcium phosphate transfection method. 48 hours post- transfection, cells were seeded for limited dilution cloning and selected with 1 mg/ml G418 in the culture medium. Following 3 weeks in G418 selection clones were picked and tested in a functional GLP-1 receptor potency assay as described below. One clone was selected for use in compound profiling.
GLP-1R and GLP-2 receptor potency assays.
The cAMP AlphaScreen® assay from Perkin Elmer was used to quantitate the cAMP response to activation of the GLP1 and GLP2 receptor, respectively. […]

[2] = target: T1, human GLP-2 receptor; experiment: GLP-2 receptor potency assay (cAMP AlphaScreen); assay type: cell-based; details: HEK293 cells expressing human GLP-2R, cAMP response; N/A = no detectable activity
Excerpt: The hGLP2-R was purchased from MRC-geneservice, Babraham, Cambridge as an Image clone: 5363415 (11924-117). For subcloning into a mammalian expression vector, primers for subcloning were obtained from DNA-Technology, Risskov, Denmark. The 5′ and 3′ primers used for the PCR reaction include terminal restriction sites for cloning and the context of the 5′ primer is modified to a Kozak consensus without changing the sequence of the product encoded by the ORF. A standard PCR reaction was run using Image clone 5363415 (11924-117) as a template with the above mentioned primers and Polymerase Herculase II Fusion in a total vol. of 50 μl. The generated PCR product was purified using GFX PCR and Gel band purification kit, digested with restriction enzymes and cloned into the mammalian expression vector using Rapid DNA Ligation Kit. Ligation reaction was transformed to XL10 Gold Ultracompetent cells and colonies were picked for DNA production using Endofree Plasmid maxi kit. Subsequent sequence analysis was conducted by MWG Eurofins, Germany.
HEK293 cells were transfected using the Lipofectamine PLUS transfection method. The day before transfection, HEK293 cells were seeded in two T75 flasks at a density of 2×10^6 cells/T75 flask in cell culturing medium without antibiotics. […] Following 4 weeks in G418 selection, clones were picked and tested in a functional GLP-2 receptor potency assay as described below.
Data from test compounds eliciting an increase in the intracellular level of cAMP were normalized relative to the positive and negative control (vehicle) to calculate the EC50 and maximal response from the concentration response curve.

[3] = target: T2, human GLP-2 receptor (hGLP2-R)
[4] = target: human glucagon-like peptide 1 receptor (GLP-1R) (human) (UniProt P43220)
[5] = target: human GLP-2 receptor (hGLP2-R) (human) (UniProt O95838)

Row | Molecule | EC50 [1] | EC50 [2] | EC50 GLP-2 (nM), cAMP AlphaScreen [3] | EC50 GLP-1 (nM), cAMP AlphaScreen [4] | EC50 GLP-2 (nM), cAMP AlphaScreen [5]
1 | CC[C@H](C)[C@H](NC(=O)[C@H](Cc1ccccc1)NC(=O)[C@H](CC(=O)O)NC(=O)[C@H](CCCCNC(=O)COCCOCCNC(=O)[C@H](CCCCN)NC(=O)[C@H](CCC(=O)O)NC(=O)[C@H](CCCCN)NC(=O)CC[C@H](NC(=O)CCCCCCCCCCCCCCCCCCC(=O)O)C(=O)O)NC(=O)[C@H](C)NC(=O)[C@H](C)NC(=O)[C@H](CCC(N)=O)NC(=O)[C@H](CCC(=O)O)NC(=O)[C@H](CC(=O)O)NC(=O)[C@H](CC(C)C)NC(=O)[C@@H](NC(=O)[C@@H](NC(=O)[C@H](C)NC(=O)[C@H](CC(C)C)NC(=O)[C@H](CCC(=O)O)NC(=O)[C@H](CO)NC(=O)[C@@H](NC(=O)[C@H](Cc1ccccc1)NC(=O)[C@H](CO)NC(=O)CNC(=O)[C@H](CCC(=O)O)NC(=O)C(C)(C)NC(=O)[C@@H](N)Cc1c[nH]cn1)[C@@H](C)O)[C@@H](C)O)[C@@H](C)CC)C(=O)N[C@@H](C)C(=O)N[C@@H](Cc1c[nH]c2ccccc12)C(=O)N[C@@H](CC(C)C)C(=O)N[C@H](C(=O)N[C@@H](CCC(=O)O)C(=O)N[C@@H](Cc1c[nH]cn1)C(=O)N[C@@H](CCCCN)C(=O)N[C@H](C(=O)N[C@H](C(=O)N[C@@H](CC(=O)O)C(=O)O)[C@@H](C)O)[C@@H](C)CC)[C@@H](C)CC [Compound 64] (H-H[Aib]EGSFTSELATILDEQAAK([AEEA-Lys-Glu-Lys-γGlu-C20 diacid])DFIAWLIEHKITD-OH) | 490 pM | 200 pM | – | – | –
2 | Teduglutide (from UniProt P01275) (peptide) | – | – | 0.027 nM | 39 nM | –
3 | H[Aib]DGSFSSELATILDK([γGlu-C18 diacid])QAARDFIAWLIQHKITD (ends and bridges not checked) [reference compound A] | – | – | – | 0.49 nM | 0.083 nM
4 | H[Aib]EGSFSSELATILDK([γGlu-C18 diacid])QAARDFIAWLIQHKITD (ends and bridges not checked) [reference compound B] | – | – | – | 3.9 nM | 0.28 nM

Other lines, results leading:

Row | EC50 [1] | EC50 [2] | EC50 GLP-2 (nM), cAMP AlphaScreen [3] | EC50 GLP-1 (nM), cAMP AlphaScreen [4] | EC50 GLP-2 (nM), cAMP AlphaScreen [5] | Molecule
5 | 310 pM | 170 pM | – | – | – | CC[C@H](C)[C@H](NC(=O)[C@H](Cc1ccccc1)NC(=O)[C@H](CC(=O)O)NC(=O)[C@H](CCCNC(=N)N)NC(=O)[C@H](C)NC(=O)[C@H](C)NC(=O)[C@H](CCCCNC(=O)COCCOCCNC(=O)COCCOCCNC(=O)[C@H](CCCCN)NC(=O)[C@H](CCC(=O)O)NC(=O)[C@H](CCCCN)NC(=O)CC[C@H](NC(=O)CCCCCCCCCCCCCCCCCCC(=O)O)C(=O)O)NC(=O)[C@H](C)NC(=O)[C@H](CC(=O)O)NC(=O)[C@H](CC(C)C)NC(=O)[C@@H](NC(=O)[C@@H](NC(=O)[C@H](C)NC(=O)[C@H](CC(C)C)NC(=O)[C@H](CCC(=O)O)NC(=O)[C@H](CO)NC(=O)[C@@H](NC(=O)[C@H](Cc1ccccc1)NC(=O)[C@H](CO)NC(=O)CNC(=O)[C@H](CCC(=O)O)NC(=O)C(C)(C)NC(=O)[C@@H](N)Cc1c[nH]cn1)[C@@H](C)O)[C@@H](C)O)[C@@H](C)CC)C(=O)N[C@@H](C)C(=O)N[C@@H](Cc1c[nH]c2ccccc12)C(=O)N[C@@H](CC(C)C)C(=O)N[C@H](C(=O)N[C@@H](CCC(=O)O)C(=O)N[C@@H](Cc1c[nH]cn1)C(=O)N[C@@H](CCCCN)C(=O)N[C@H](C(=O)N[C@H](C(=O)N[C@@H](CC(=O)O)C(=O)O)[C@@H](C)O)[C@@H](C)CC)[C@@H](C)CC [Compound 63] (H-H[Aib]EGSFTSELATILDAK([AEEA-AEEA-Lys-Glu-Lys-γGlu-C20 diacid])AARDFIAWLIEHKITD-OH)
6 | – | 240 pM | – | – | – | CC[C@H](C)[C@H](NC(=O)[C@H](Cc1ccccc1)NC(=O)[C@H](CC(=O)O)NC(=O)[C@H](CCCNC(=N)N)NC(=O)[C@H](C)NC(=O)[C@H](C)NC(=O)[C@H](CCC(N)=O)NC(=O)[C@H](CCC(=O)O)NC(=O)[C@H](CC(=O)O)NC(=O)[C@H](CC(C)C)NC(=O)[C@@H](NC(=O)[C@@H](NC(=O)[C@H](C)NC(=O)[C@H](CCCCNC(=O)COCCOCCNC(=O)[C@H](CCCCN)NC(=O)[C@H](CCC(=O)O)NC(=O)[C@H](CCCCN)NC(=O)CC[C@H](NC(=O)CCCCCCCCCCCCCCCCCCC(=O)O)C(=O)O)NC(=O)[C@H](CCC(=O)O)NC(=O)[C@H](CO)NC(=O)[C@@H](NC(=O)[C@H](Cc1ccccc1)NC(=O)[C@H](CO)NC(=O)CNC(=O)[C@H](CCC(=O)O)NC(=O)C(C)(C)NC(=O)[C@@H](N)Cc1c[nH]cn1)[C@@H](C)O)[C@@H](C)O)[C@@H](C)CC)C(=O)N[C@@H](C)C(=O)N[C@@H](Cc1c[nH]c2ccccc12)C(=O)N[C@@H](CC(C)C)C(=O)N[C@H](C(=O)N[C@@H](CCC(=O)O)C(=O)N[C@@H](Cc1c[nH]cn1)C(=O)N[C@@H](CCCCN)C(=O)N[C@H](C(=O)N[C@H](C(=O)N[C@@H](CC(=O)O)C(=O)O)[C@@H](C)O)[C@@H](C)CC)[C@@H](C)CC [Compound 53] (H-H[Aib]EGSFTSEK([AEEA-Lys-Glu-Lys-γGlu-C20 diacid])ATILDEQAARDFIAWLIEHKITD-OH)
